Each binder was assayed against T1, CD3 epsilon homodimer protein (UniProt P07766 23-126) (assay: SPR Biacore T200, CD3 epsilon homodimer on CM4 chip, antibody as analyte;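 further: Amine-coupled CD3 epsilon homodimer, run at 25 °C in HBS-EP+ buffer, ratio is bound amount of each single-residue H chain variant over that of the parent antibody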).
T1 construct: Immobilized on Sensor chip CM4 by amine coupling; construct not described; also called CD3 (CD3 epsilon)
T1 sequence (P07766 23-126): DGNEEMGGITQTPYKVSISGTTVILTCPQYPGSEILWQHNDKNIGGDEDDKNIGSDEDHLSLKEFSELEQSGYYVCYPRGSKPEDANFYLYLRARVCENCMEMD

Row | ratio of amounts bound (Y/X vs CE115HA000) | Binder
1 | 2.96 | CE115HA000 G98R one-arm antibody (antibody, human IgG1, kappa, L234A L235A, N297A, name in Kabat numbering, one-arm antibody (one Fab)) heavy: QVQLVESGGGVVQPGRSLRLSCAASGFTFSNAWMHWVRQAPGKGLEWVAQIKAKSNNYATYYAESVKGRFTISRDDSKNSLYLQMNSLKTEDTAVYYCRYVHYRAYYGVDAWGQGTTVTVSSASTKGPSVFPLAPSSKSTSGGTAALGCLVKDYFPEPVTVSWNSGALTSGVHTFPAVLQSSGLYSLSSVVTVPSSSLGTQTYICNVNHKPSNTKVDKKVEPKSCDKTHTCPPCPAPEAAGGPSVFLFPPKPKDTLMISRTPEVTCVVVDVSHEDPEVKFNWYVDGVEVHNAKTKPREEQYASTYRVVSVLTVLHQDWLNGKEYKCKVSNKALPAPIEKTISKAKGQPREPQVYTLPPSRCELTKNQVSLSCAVKGFYPSDIAVEWESNGQPENNYKTTPPVLDSDGSFFLVSKLTVDKSRWQQGNVFSCSVMHEALHNHYTQKSLSLSPDYKDDDDK EPKSSDKTHTCPPCPAPELLGGPSVFLFPPKPKDTLMISRTPEVTCVVVDVSHEDPEVKFNWYVDGVEVHNAKTKPREEQYNSTYRVVSVLTVLHQDWLNGKEYKCKVSNKALPAPIEKTISKAKGQPREPQVCTLPPSRDELTKNQVSLWCLVKGFYPSDIAVEWESNGQPENNYKTTPPVLDSDGSFFLYSKLTVDKSRWQQGNVFSCSVMHEALHNRYTQKSLSLSP light: DIVMTQSPLSLPVTPGEPASISCRSSQSLVHSNRNTYLHWYQQKPGQAPRLLIYKVSNRFSGVPDRFSGSGSGTDFTLKISRVEAEDVGVYYCGQGTQVPYTFGQGTKLEIKRTVAAPSVFIFPPSDEQLKSGTASVVCLLNNFYPREAKVQWKVDNALQSGNSQESVTEQDSKDSTYSLSSTLTLSKADYEKHKVYACEVTHQGLSSPVTKSFNRGEC
2 | 1.22 | CE115HA000 G98Q one-arm antibody (antibody, human IgG1, kappa, L234A L235A, N297A, name in Kabat numbering, one-arm antibody (one Fab)) heavy: QVQLVESGGGVVQPGRSLRLSCAASGFTFSNAWMHWVRQAPGKGLEWVAQIKAKSNNYATYYAESVKGRFTISRDDSKNSLYLQMNSLKTEDTAVYYCRYVHYQAYYGVDAWGQGTTVTVSSASTKGPSVFPLAPSSKSTSGGTAALGCLVKDYFPEPVTVSWNSGALTSGVHTFPAVLQSSGLYSLSSVVTVPSSSLGTQTYICNVNHKPSNTKVDKKVEPKSCDKTHTCPPCPAPEAAGGPSVFLFPPKPKDTLMISRTPEVTCVVVDVSHEDPEVKFNWYVDGVEVHNAKTKPREEQYASTYRVVSVLTVLHQDWLNGKEYKCKVSNKALPAPIEKTISKAKGQPREPQVYTLPPSRCELTKNQVSLSCAVKGFYPSDIAVEWESNGQPENNYKTTPPVLDSDGSFFLVSKLTVDKSRWQQGNVFSCSVMHEALHNHYTQKSLSLSPDYKDDDDK EPKSSDKTHTCPPCPAPELLGGPSVFLFPPKPKDTLMISRTPEVTCVVVDVSHEDPEVKFNWYVDGVEVHNAKTKPREEQYNSTYRVVSVLTVLHQDWLNGKEYKCKVSNKALPAPIEKTISKAKGQPREPQVCTLPPSRDELTKNQVSLWCLVKGFYPSDIAVEWESNGQPENNYKTTPPVLDSDGSFFLYSKLTVDKSRWQQGNVFSCSVMHEALHNRYTQKSLSLSP light: DIVMTQSPLSLPVTPGEPASISCRSSQSLVHSNRNTYLHWYQQKPGQAPRLLIYKVSNRFSGVPDRFSGSGSGTDFTLKISRVEAEDVGVYYCGQGTQVPYTFGQGTKLEIKRTVAAPSVFIFPPSDEQLKSGTASVVCLLNNFYPREAKVQWKVDNALQSGNSQESVTEQDSKDSTYSLSSTLTLSKADYEKHKVYACEVTHQGLSSPVTKSFNRGEC
3 | 1.01 | CE115HA000 G98S one-arm antibody (antibody, human IgG1, kappa, L234A L235A, N297A, name in Kabat numbering, one-arm antibody (one Fab)) heavy: QVQLVESGGGVVQPGRSLRLSCAASGFTFSNAWMHWVRQAPGKGLEWVAQIKAKSNNYATYYAESVKGRFTISRDDSKNSLYLQMNSLKTEDTAVYYCRYVHYSAYYGVDAWGQGTTVTVSSASTKGPSVFPLAPSSKSTSGGTAALGCLVKDYFPEPVTVSWNSGALTSGVHTFPAVLQSSGLYSLSSVVTVPSSSLGTQTYICNVNHKPSNTKVDKKVEPKSCDKTHTCPPCPAPEAAGGPSVFLFPPKPKDTLMISRTPEVTCVVVDVSHEDPEVKFNWYVDGVEVHNAKTKPREEQYASTYRVVSVLTVLHQDWLNGKEYKCKVSNKALPAPIEKTISKAKGQPREPQVYTLPPSRCELTKNQVSLSCAVKGFYPSDIAVEWESNGQPENNYKTTPPVLDSDGSFFLVSKLTVDKSRWQQGNVFSCSVMHEALHNHYTQKSLSLSPDYKDDDDK EPKSSDKTHTCPPCPAPELLGGPSVFLFPPKPKDTLMISRTPEVTCVVVDVSHEDPEVKFNWYVDGVEVHNAKTKPREEQYNSTYRVVSVLTVLHQDWLNGKEYKCKVSNKALPAPIEKTISKAKGQPREPQVCTLPPSRDELTKNQVSLWCLVKGFYPSDIAVEWESNGQPENNYKTTPPVLDSDGSFFLYSKLTVDKSRWQQGNVFSCSVMHEALHNRYTQKSLSLSP light: DIVMTQSPLSLPVTPGEPASISCRSSQSLVHSNRNTYLHWYQQKPGQAPRLLIYKVSNRFSGVPDRFSGSGSGTDFTLKISRVEAEDVGVYYCGQGTQVPYTFGQGTKLEIKRTVAAPSVFIFPPSDEQLKSGTASVVCLLNNFYPREAKVQWKVDNALQSGNSQESVTEQDSKDSTYSLSSTLTLSKADYEKHKVYACEVTHQGLSSPVTKSFNRGEC

The remaining lines, values behind:

Row | Binder | ratio of amounts bound (Y/X vs CE115HA000)
4 | CE115HA000 G98H one-arm antibody (antibody, human IgG1, kappa, L234A L235A, N297A, name in Kabat numbering, one-arm antibody (one Fab)) heavy: QVQLVESGGGVVQPGRSLRLSCAASGFTFSNAWMHWVRQAPGKGLEWVAQIKAKSNNYATYYAESVKGRFTISRDDSKNSLYLQMNSLKTEDTAVYYCRYVHYHAYYGVDAWGQGTTVTVSSASTKGPSVFPLAPSSKSTSGGTAALGCLVKDYFPEPVTVSWNSGALTSGVHTFPAVLQSSGLYSLSSVVTVPSSSLGTQTYICNVNHKPSNTKVDKKVEPKSCDKTHTCPPCPAPEAAGGPSVFLFPPKPKDTLMISRTPEVTCVVVDVSHEDPEVKFNWYVDGVEVHNAKTKPREEQYASTYRVVSVLTVLHQDWLNGKEYKCKVSNKALPAPIEKTISKAKGQPREPQVYTLPPSRCELTKNQVSLSCAVKGFYPSDIAVEWESNGQPENNYKTTPPVLDSDGSFFLVSKLTVDKSRWQQGNVFSCSVMHEALHNHYTQKSLSLSPDYKDDDDK EPKSSDKTHTCPPCPAPELLGGPSVFLFPPKPKDTLMISRTPEVTCVVVDVSHEDPEVKFNWYVDGVEVHNAKTKPREEQYNSTYRVVSVLTVLHQDWLNGKEYKCKVSNKALPAPIEKTISKAKGQPREPQVCTLPPSRDELTKNQVSLWCLVKGFYPSDIAVEWESNGQPENNYKTTPPVLDSDGSFFLYSKLTVDKSRWQQGNVFSCSVMHEALHNRYTQKSLSLSP light: DIVMTQSPLSLPVTPGEPASISCRSSQSLVHSNRNTYLHWYQQKPGQAPRLLIYKVSNRFSGVPDRFSGSGSGTDFTLKISRVEAEDVGVYYCGQGTQVPYTFGQGTKLEIKRTVAAPSVFIFPPSDEQLKSGTASVVCLLNNFYPREAKVQWKVDNALQSGNSQESVTEQDSKDSTYSLSSTLTLSKADYEKHKVYACEVTHQGLSSPVTKSFNRGEC | 1.58
5 | CE115HA000 G98K one-arm antibody (antibody, human IgG1, kappa, L234A L235A, N297A, name in Kabat numbering, one-arm antibody (one Fab)) heavy: QVQLVESGGGVVQPGRSLRLSCAASGFTFSNAWMHWVRQAPGKGLEWVAQIKAKSNNYATYYAESVKGRFTISRDDSKNSLYLQMNSLKTEDTAVYYCRYVHYKAYYGVDAWGQGTTVTVSSASTKGPSVFPLAPSSKSTSGGTAALGCLVKDYFPEPVTVSWNSGALTSGVHTFPAVLQSSGLYSLSSVVTVPSSSLGTQTYICNVNHKPSNTKVDKKVEPKSCDKTHTCPPCPAPEAAGGPSVFLFPPKPKDTLMISRTPEVTCVVVDVSHEDPEVKFNWYVDGVEVHNAKTKPREEQYASTYRVVSVLTVLHQDWLNGKEYKCKVSNKALPAPIEKTISKAKGQPREPQVYTLPPSRCELTKNQVSLSCAVKGFYPSDIAVEWESNGQPENNYKTTPPVLDSDGSFFLVSKLTVDKSRWQQGNVFSCSVMHEALHNHYTQKSLSLSPDYKDDDDK EPKSSDKTHTCPPCPAPELLGGPSVFLFPPKPKDTLMISRTPEVTCVVVDVSHEDPEVKFNWYVDGVEVHNAKTKPREEQYNSTYRVVSVLTVLHQDWLNGKEYKCKVSNKALPAPIEKTISKAKGQPREPQVCTLPPSRDELTKNQVSLWCLVKGFYPSDIAVEWESNGQPENNYKTTPPVLDSDGSFFLYSKLTVDKSRWQQGNVFSCSVMHEALHNRYTQKSLSLSP light: DIVMTQSPLSLPVTPGEPASISCRSSQSLVHSNRNTYLHWYQQKPGQAPRLLIYKVSNRFSGVPDRFSGSGSGTDFTLKISRVEAEDVGVYYCGQGTQVPYTFGQGTKLEIKRTVAAPSVFIFPPSDEQLKSGTASVVCLLNNFYPREAKVQWKVDNALQSGNSQESVTEQDSKDSTYSLSSTLTLSKADYEKHKVYACEVTHQGLSSPVTKSFNRGEC | 2.83
6 | CE115HA000 G98P one-arm antibody (antibody, human IgG1, kappa, L234A L235A, N297A, name in Kabat numbering, one-arm antibody (one Fab)) heavy: QVQLVESGGGVVQPGRSLRLSCAASGFTFSNAWMHWVRQAPGKGLEWVAQIKAKSNNYATYYAESVKGRFTISRDDSKNSLYLQMNSLKTEDTAVYYCRYVHYPAYYGVDAWGQGTTVTVSSASTKGPSVFPLAPSSKSTSGGTAALGCLVKDYFPEPVTVSWNSGALTSGVHTFPAVLQSSGLYSLSSVVTVPSSSLGTQTYICNVNHKPSNTKVDKKVEPKSCDKTHTCPPCPAPEAAGGPSVFLFPPKPKDTLMISRTPEVTCVVVDVSHEDPEVKFNWYVDGVEVHNAKTKPREEQYASTYRVVSVLTVLHQDWLNGKEYKCKVSNKALPAPIEKTISKAKGQPREPQVYTLPPSRCELTKNQVSLSCAVKGFYPSDIAVEWESNGQPENNYKTTPPVLDSDGSFFLVSKLTVDKSRWQQGNVFSCSVMHEALHNHYTQKSLSLSPDYKDDDDK EPKSSDKTHTCPPCPAPELLGGPSVFLFPPKPKDTLMISRTPEVTCVVVDVSHEDPEVKFNWYVDGVEVHNAKTKPREEQYNSTYRVVSVLTVLHQDWLNGKEYKCKVSNKALPAPIEKTISKAKGQPREPQVCTLPPSRDELTKNQVSLWCLVKGFYPSDIAVEWESNGQPENNYKTTPPVLDSDGSFFLYSKLTVDKSRWQQGNVFSCSVMHEALHNRYTQKSLSLSP light: DIVMTQSPLSLPVTPGEPASISCRSSQSLVHSNRNTYLHWYQQKPGQAPRLLIYKVSNRFSGVPDRFSGSGSGTDFTLKISRVEAEDVGVYYCGQGTQVPYTFGQGTKLEIKRTVAAPSVFIFPPSDEQLKSGTASVVCLLNNFYPREAKVQWKVDNALQSGNSQESVTEQDSKDSTYSLSSTLTLSKADYEKHKVYACEVTHQGLSSPVTKSFNRGEC | 1.02
